In patent publication US20240368295A1 (SUTRO BIOPHARMA, published 2024):

Key:
[1] = biological target: T1, BCMA on BCMA-positive NCI-H929, ARP-1 and U266B1 cells (human, UniProt Q02223 1-184); experiment: FACS, NCI-H929 cells
T1 construct: they are human cell lines; also called B-cell maturation antigen; TNFRSF17
T1 sequence: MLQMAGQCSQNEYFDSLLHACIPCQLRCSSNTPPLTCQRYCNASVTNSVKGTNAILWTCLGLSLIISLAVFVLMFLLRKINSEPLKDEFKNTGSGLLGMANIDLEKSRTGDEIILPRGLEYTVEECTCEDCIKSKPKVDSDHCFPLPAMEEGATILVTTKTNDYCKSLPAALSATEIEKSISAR
Experimental: (§1) Variants for which sufficient protein was purified in secondary screening were tested in a fluorescence-activated cell sorting (FACS) cell-binding assay. […] 6-12 point dilutions of anti-BCMA variants starting from concentrations of about 100-200 nM antibody were dispensed into each well using a BioMekFX (Beckman Coulter). Cells were then incubated on ice for 1 hr, washed with FACS buffer and incubated for 1 hr on ice with […] FACS buffer containing […] Alexa647-conjugated Goat Anti-Human IgG dispensed using BioMekFX (Beckman Coulter). Cells were then washed 2× with FACS buffer and fixed for 10 minutes in […] PBS with 2% PFA prior to fluorescence detection. Samples were acquired using a Beckton Dickinson LSRII FACS. Geometric Mean Fluorescence Intensity of BCMA antibody binding was analyzed using FlowJo® software (Trec Star, Inc.).

[2] = biological target: T1, BCMA on BCMA-positive NCI-H929, ARP-1 …; experiment: cell-based or functional assay
[3] = biological target: cynomolgus BCMA on 293T-cynoBCMA cells (cynomolgus, UniProt Q02223 1-184 (human entry)); experiment: FACS, 293T-cynoBCMA cells
Sequence of cynomolgus BCMA on 293T-cynoBCMA cells (Q02223 other isoform, or with tags, fused parts or gaps): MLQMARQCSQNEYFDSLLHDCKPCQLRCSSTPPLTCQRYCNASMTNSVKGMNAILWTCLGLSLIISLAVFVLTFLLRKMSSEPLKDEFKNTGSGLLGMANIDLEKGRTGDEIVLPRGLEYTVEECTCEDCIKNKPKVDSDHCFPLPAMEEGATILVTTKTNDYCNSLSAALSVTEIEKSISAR
Experimental: as §1

[4] = biological target: T1, BCMA on BCMA-positive NCI-H929, ARP-1 …; experiment: cell-based or functional assay; remark: listed apart in the source

Binder	Bmax (MFI) [1] [MFI]	Kd [1] [nM]	ARP-1, SC225-conjugated 2° antibody cell killing, EC50 [2] [nM]	ARP-1, SC225-conjugated 2° antibody cell killing, Span [2] [%]	U266B1, SC225-conjugated 2° antibody cell killing, EC50 [2] [nM]	U266B1, SC225-conjugated 2° antibody cell killing, Span [2] [%]	Bmax (MFI) [3] [MFI]	Kd [3] [nM]	ARP-1, SC239-conjugated 2° antibody cell killing, EC50 [4] [nM]	ARP-1, SC239-conjugated 2° antibody cell killing, Span [4] [%]	U266B1, SC239-conjugated 2° antibody cell killing, EC50 [4] [nM]	U266B1, SC239-conjugated 2° antibody cell killing, Span [4] [%]
SRP2265-F02 (antibody, IgG1, V domains shown, IgG1 with trastuzumab light chain, His/FLAG-tagged, cell-free expressed; also called Antibody 4) VH: EVQLVESGGGLVQPGGSLRLSCAASGFNISAPGIHWVRQAPGKGLEWVGFINPAGGYTDYADSVKGRFTISADTSKNTAYLQMNSLRAEDTAVYYCARDYIRQYWTYVLDYWGQGTLVTVSS VL: not shown	12200	4.5	1.6	62	1	62	21800	5				
SRP2265-A06 (antibody, IgG1, V domains shown, IgG1 with trastuzumab light chain, His/FLAG-tagged, cell-free expressed; also called Antibody 13) VH: EVQLVESGGGLVQPGGSLRLSCAASGFNIYRSGIHWVRQAPGKGLEWVGFINPAGGYTDYADSVKGRFTISADTSKNTAYLQMNSLRAEDTAVYYCARDYVPQYWTYVLDYWGQGTLVTVSS VL: not shown	11100		2.9	68	1.3	59	22100					
SRP2265-A09 (antibody, IgG1, V domains shown, IgG1 with trastuzumab light chain, His/FLAG-tagged, cell-free expressed; also called Antibody 6) VH: EVQLVESGGGLVQPGGSLRLSCAASGFNIIGPGIHWVRQAPGKGLEWVGFINPAGGYTDYADSVKGRFTISADTSKNTAYLQMNSLRAEDTAVYYCARDYVYNYWTYVLDYWGQGTLVTVSS VL: not shown	11700	5.2	1.9	55	0.9	58	23800	6.2				
SRP2265-D05 (antibody, IgG1, V domains shown, IgG1 with trastuzumab light chain, His/FLAG-tagged, cell-free expressed; also called Antibody 10) VH: EVQLVESGGGLVQPGGSLRLSCAASGFNISGPGIHWVRQAPGKGLEWVGFINPAAGYTDYADSVKGRFAISADTSKNTAYLQMNSLRAEDTAVYYCARDFVYAYWTYVLDYWGQGTLVTVSS VL: not shown	10900	4	1	50	0.8	53	21300	3.8				
SRP2265-E02 (antibody, IgG1, V domains shown, IgG1 with trastuzumab light chain, His/FLAG-tagged, cell-free expressed; also called Antibody 8) VH: EVQLVESGGGLVQPGGSLRLSCAASGFNIYVSGIHWVRQAPGKGLEWVGFINPAGGYTDYADSVKGRFTISADTSKNTAYLQTNSLRAEDTAVYYCARDYVYQYWTYVLDYWGQGTLVTVSS VL: not shown	11600		1.5	55	0.8	53	26700	5.1				
SRP2265-F03 (antibody, IgG1, V domains shown, IgG1 with trastuzumab light chain, His/FLAG-tagged, cell-free expressed; also called Antibody 7) VH: EVQLVESGGGLVQPGGSLRLSCAASGFNIRGPGIHWVRQAPGKGLEWVGFISPAAGYTDYADSVKGRFTISADTSKNTAYLQMNSLRAEDTAVYYCARDFVQSYWTYVLDYWGQGTLVTVSS VL: not shown	12500	5.3	2.3	57	0.8	56						
SRP2265-F05 (antibody, IgG1, V domains shown, IgG1 with trastuzumab light chain, His/FLAG-tagged, cell-free expressed; also called Antibody 3) VH: EVQLVESGGGLVQPGGSLRLSCAASGFNIIAPGIHWVRQAPGKGLEWVGFINPAGGYTDYADSVKGRFTISADTSKNTAYLQMNSLRAEDTAVYYCARDYVNAYWTYVLDYWGQGTLVTVSS VL: not shown	12700	10.3	1.8	52	1.2	61	18500	3				
SRP2265-F06 (antibody, IgG1, V domains shown, IgG1 with trastuzumab light chain, His/FLAG-tagged, cell-free expressed; also called Antibody 2) VH: EVQLVESGGGLVQPGGSLRLSCAASGFNISYPGIHWVRQAPGKGLEWVGFINPAGGYTDYADSVKGRFTISADTSKNTAYLQMNSLRAEDTAVYYCARDYILQYWTYVLDYWGQGTLVTVSS VL: not shown	11400		1.2	62	0.9	59	25800					
SRP2213-A06 (antibody, IgG1, V domains shown, IgG1 with trastuzumab light chain, His/FLAG-tagged, cell-free expressed; also called Antibody 23) VH: EVQLVESGGGLVQPGGSLRLSCAASGFNISSYAIHWVRQAPGKGLEWVGVISPYGGYTEYADSVKGRFTISADTSKNTAYLQMNSLRAEDTAVYYCARDFYDRYSTYVLDYWGQGTLVTVSS VL: not shown	2510						3620					
SRP2265-B06 (antibody, IgG1, V domains shown, IgG1 with trastuzumab light chain, His/FLAG-tagged, cell-free expressed; also called Antibody 5) VH: EVQLVESGGGLVQPGGSLRLSCAASGFNIRVSGIHWVRQAPGKGLEWVGFINPAGGYTDYADSVKGRFTISADTSKNTAYLQMNSLRAEDTAVYYCARDYVQAYWTYVLDYWGQGTLVTVSS VL: not shown	11900	6.2	1.6	67	0.6	59	26600	3.4				
SRP2265-C02 (antibody, IgG1, V domains shown, IgG1 with trastuzumab light chain, His/FLAG-tagged, cell-free expressed; also called Antibody 12) VH: EVQLVESGGGLVQPGGSLRLSCAASGFNIGVSGIHWVRQAPGKGLEWVGFINPAGGYTDYAGSVKGRFTISADTSKNTAYLQMNSLRAEDTAVYYCARDYIYSYWTYVLDYWGQGTLVTVSS VL: not shown	11200	4.3	1.5	55	0.7	51	17400	2.5				
SRP2265-C03 (antibody, IgG1, V domains shown, IgG1 with trastuzumab light chain, His/FLAG-tagged, cell-free expressed; also called Antibody 11) VH: EVQLVESGGGLVQPGGSLRLSCAAPGFNISVPGIHWVRQAPGKGLEWVGFINPAGGYTDYADSVKGRFTISADTSKNTAYLQMNSLRAEDTAVYYCARDYVPQYWTYVLDYWGQGTLVTVSS VL: not shown	11500	4.4	2.2	70	1.1	61	24100	4.9				
SRP2265-D11 (antibody, IgG1, V domains shown, IgG1 with trastuzumab light chain, His/FLAG-tagged, cell-free expressed; also called Antibody 9) VH: EVQLVESGGGLVQPGGSLRLSCAASGFNISGPGIHWVRQAPGKGLEWVGFINPAAGYTDYADSVKGRFTISADTSKNTAYLQMNSLRAEDTAVYYCARDYIYQYWTYVLDYWGQGTLVTVSS VL: not shown	9620	4.4	1.9	51	1	54	21900	2.5				
9A8 (antibody, V domains shown, chicken HybriFree-derived antibody; also called Antibody 30) VH: AVTLDESGGGLQTPGGTLSLVCKASGFTFSSFNMFWVRQAPGKGLEWVAYIRNDGNSASYGPAVKGRATISRDNGQSTVRLQLNNLRAEDTATYYCAKTTCIGSGGCIDTWGHGTEVIVSS VL: ALTQPSSVSANPGETVKITCSGGSSDYGWFQQKSPGSAPVTVIYSNNQRPSGIPSRFSGSKSGSTGTLTITGVQAEDEAIYYCANVDYTDDVFGAGTTLTVL	21100						17800		2.4	82	2.3	42
10G5 (antibody, V domains shown, chicken HybriFree-derived antibody; also called Antibody 31) VH: AVTLDESGGGLQTPGGVLSLVCKASGFTFSSFNMFWVRQAPGKGLEWVAYISNDGSSTSYGPAVKGRATISRDNGQSTVRLQLNNLRAEDTATYFCAKTTCIGSGGCIDTWGHGTEVIVSS VL: ALTQPSSVSANPGETVKITCSGGNYDYGWYQQKSPGSAPVTLIYYNNKRPSDIPSRFSGSKSGSTGTLTITGVQAEDEAIYYCANVDSTDDVFGAGTTLTVL	25800						24400		3.5	82	1.9	63
SRP2137-A05 (antibody, IgG1, V domains shown, IgG1 with trastuzumab light chain, His/FLAG-tagged, cell-free expressed; also called Antibody 14) VH: EVQLVESGGGLVQPGGSLRLSCAASGFNINNSYIHWVRQAPGKGLEWVGWIYPYSGYTNYADSVKGRFTISADTSKNTAYLQMNSLRAEDTAVYYCARDYGPWYGTGVLDYWGQGTLVTVSS VL: not shown	2690						1910					
